B1: MYOZ1 (parent)
chain: FSDSSMDHFQKFLPTVGGQLGTAG
B2: PBXIP1 (parent)
chain: LPVETLGPASRMDPESERALQAPH
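Further: lentivirally expressed fusions sorted by FACS into six bins by GFP to DsRed ratio, PSI derived from sequencing read proportions per bin multiplied by bin number.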

One data set covers variants of B1. Kind of data set: protein stability index of a GFP-peptide fusion (GPS, HEK-293T) (PSI 1-6); higher = more stable. Conditions: c terminus: a fixed tail appended.
For FSQSSMDHFQKFLPTVGGQLGTAG [D3Q], the protein stability index was found to be 2.27. On to FSHSSMDHFQKFLPTVGGQLGTAG [D3H], for which the protein stability index was found to be 1.88.

For the variant FSASSMDHFQKFLPTVGGQLGTAG [D3A], the protein stability index came to 1.96. On to FSKSSMDHFQKFLPTVGGQLGTAG [D3K], for which the protein stability index was found to be 1.63. With FSFSSMDHFQKFLPTVGGQLGTAG [D3F], the protein stability index was 1.94.

FSSSSMDHFQKFLPTVGGQLGTAG [D3S]: the protein stability index worked out at 1.97. On the same count and under the same terms, then FSPSSMDHFQKFLPTVGGQLGTAG [D3P], with 1.56; and FSVSSMDHFQKFLPTVGGQLGTAG [D3V], with 1.96. As for FSYSSMDHFQKFLPTVGGQLGTAG [D3Y], the protein stability index was found to be 2.02. On the same count and under the same terms, then FSESSMDHFQKFLPTVGGQLGTAG [D3E], with 3.06; and FSMSSMDHFQKFLPTVGGQLGTAG [D3M], with 1.45. The same measure, in the same setting: then FSWSSMDHFQKFLPTVGGQLGTAG [D3W], with 2.06.

As to FSNSSMDHFQKFLPTVGGQLGTAG [D3N], the protein stability index came out at 1.67. On the same count and under the same terms, then FSRSSMDHFQKFLPTVGGQLGTAG [D3R], with 1.49. In the case of FSLSSMDHFQKFLPTVGGQLGTAG [D3L], the protein stability index worked out at 1.55.

Take FSISSMDHFQKFLPTVGGQLGTAG [D3I]: the protein stability index came to 1.89. Same read-out and setting: then FSTSSMDHFQKFLPTVGGQLGTAG [D3T], with 1.96; and GSDSSMDHFQKFLPTVGGQLGTAG [F1G], with 2.41; and SSDSSMDHFQKFLPTVGGQLGTAG [F1S], with 4.12. Consider LSDSSMDHFQKFLPTVGGQLGTAG [F1L], for which the protein stability index worked out at 3.11. The same measure, in the same setting: then VSDSSMDHFQKFLPTVGGQLGTAG [F1V], with 3.56; and YSDSSMDHFQKFLPTVGGQLGTAG [F1Y], with 2.83; and ESDSSMDHFQKFLPTVGGQLGTAG [F1E], with 3.38. The same measure, in the same setting: the value for CSDSSMDHFQKFLPTVGGQLGTAG [F1C] was 2.26. On the same count and under the same terms, the value for HSDSSMDHFQKFLPTVGGQLGTAG [F1H] was 3.88. Turning to RSDSSMDHFQKFLPTVGGQLGTAG [F1R], the protein stability index was 3.41. Same read-out and setting: then MSDSSMDHFQKFLPTVGGQLGTAG [F1M], with 3.7. Still for that read-out and setting: then TSDSSMDHFQKFLPTVGGQLGTAG [F1T], with 3.51; and NSDSSMDHFQKFLPTVGGQLGTAG [F1N], with 3.23. Same read-out and setting: the value for KSDSSMDHFQKFLPTVGGQLGTAG [F1K] was 3.77; that for ASDSSMDHFQKFLPTVGGQLGTAG [F1A] was 3.62.

Consider ISDSSMDHFQKFLPTVGGQLGTAG [F1I], for which the protein stability index stood at 2.92. Same read-out and setting: the value for WSDSSMDHFQKFLPTVGGQLGTAG [F1W] was 2.56; that for PSDSSMDHFQKFLPTVGGQLGTAG [F1P] was 3.6. The same measure, in the same setting: then FSDASMDHFQKFLPTVGGQLGTAG [S4A], with 2.09; and FGDSSMDHFQKFLPTVGGQLGTAG [S2G], with 2.9.

With FCDSSMDHFQKFLPTVGGQLGTAG [S2C], the protein stability index turned out to be 1.5. As to FQDSSMDHFQKFLPTVGGQLGTAG [S2Q], the protein stability index is 2.59. For FNDSSMDHFQKFLPTVGGQLGTAG [S2N], the protein stability index stood at 2.23.

Consider FFDSSMDHFQKFLPTVGGQLGTAG [S2F], for which the protein stability index came out at 1.62. The same measure, in the same setting: then FLDSSMDHFQKFLPTVGGQLGTAG [S2L], with 3.52; and FEDSSMDHFQKFLPTVGGQLGTAG [S2E], with 2.81; and FHDSSMDHFQKFLPTVGGQLGTAG [S2H], with 1.5.

For FMDSSMDHFQKFLPTVGGQLGTAG [S2M], the protein stability index turned out to be 2.63. Turning to FPDSSMDHFQKFLPTVGGQLGTAG [S2P], the protein stability index came to 2.54. Still for that read-out and setting: then FRDSSMDHFQKFLPTVGGQLGTAG [S2R], with 1.94; and FADSSMDHFQKFLPTVGGQLGTAG [S2A], with 1.77; and FYDSSMDHFQKFLPTVGGQLGTAG [S2Y], with 1.83. With FDDSSMDHFQKFLPTVGGQLGTAG [S2D], the protein stability index worked out at 2.95. Take FIDSSMDHFQKFLPTVGGQLGTAG [S2I]: the protein stability index came to 1.92.

In a further data set the parent is B2. The description is as above. The settings on record: c terminus: a fixed tail appended.
Consider LPVETLGPASRMDPESERALQVPH [A22V], for which the protein stability index amounted to 4.2. Still for that read-out and setting: the value for LPVETLGPASRMDPESERALQRPH [A22R] was 4.78; that for LPVETLGPASRMDPESERALQWPH [A22W] was 3.25; that for LPVETLGPASRMDPESERALQSPH [A22S] was 4.36. On the same count and under the same terms, then LPVETLGPASRMDPESERALQYPH [A22Y], with 4.31; and LPVETLGPASRMDPESERALQTPH [A22T], with 4.7; and LPVETLGPASRMDPESERALQAPQ [H24Q], with 4.31.

With LPVETLGPASRMDPESERALQAPG [H24G], the protein stability index turned out to be 4.26.

With LPVETLGPASRMDPESERALQAPI [H24I], the protein stability index stood at 3.72. As to LPVETLGPASRMDPESERALQAPP [H24P], the protein stability index was 4.03.

Regarding LPVETLGPASRMDPESERALQAPM [H24M], the protein stability index was determined as 4.23. Still for that read-out and setting: the value for LPVETLGPASRMDPESERALQAPV [H24V] was 4.47; that for LPVETLGPASRMDPESERALQAPF [H24F] was 4.21. For the variant LPVETLGPASRMDPESERALQAPC [H24C], the protein stability index was 4.05. On to LPVETLGPASRMDPESERALQAPD [H24D], for which the protein stability index was determined as 4.75. On to LPVETLGPASRMDPESERALQAPN [H24N], for which the protein stability index came out at 4.61.

Turning to LPVETLGPASRMDPESERALQAPS [H24S], the protein stability index was 4.75. Turning to LPVETLGPASRMDPESERALQAPT [H24T], the protein stability index is 4.59. On the same count and under the same terms, the value for LPVETLGPASRMDPESERALQAPW [H24W] was 4.07; that for LPVETLGPASRMDPESERALQAPL [H24L] was 3.94.

For the variant LPVETLGPASRMDPESERALQAPR [H24R], the protein stability index came to 4.16.

Consider LPVETLGPASRMDPESERALQAPK [H24K], for which the protein stability index stood at 4.5. With LPVETLGPASRMDPESERALQAPA [H24A], the protein stability index turned out to be 4.44.

With LPVETLGPASRMDPESERALQAPE [H24E], the protein stability index was 4.36.

For the variant LPVETLGPASRMDPESERALQAPY [H24Y], the protein stability index is 4.07. Same read-out and setting: then LPVETLGPASRMDPESERALQAKH [P23K], with 4.57; and LPVETLGPASRMDPESERALQAQH [P23Q], with 4.06. Consider LPVETLGPASRMDPESERALQAMH [P23M], for which the protein stability index is 4.16. The same measure, in the same setting: the value for LPVETLGPASRMDPESERALQAVH [P23V] was 3.92; that for LPVETLGPASRMDPESERALQAFH [P23F] was 3.98.

LPVETLGPASRMDPESERALQANH [P23N]: the protein stability index turned out to be 4.26.

As for LPVETLGPASRMDPESERALQARH [P23R], the protein stability index was 4.66. Still for that read-out and setting: the value for LPVETLGPASRMDPESERALQAAH [P23A] was 4.09; that for LPVETLGPASRMDPESERALQADH [P23D] was 4.6; that for LPVETLGPASRMDPESERALQAEH [P23E] was 4.8. On to LPVETLGPASRMDPESERALQATH [P23T], for which the protein stability index came to 4.57. Consider LPVETLGPASRMDPESERALQAHH [P23H], for which the protein stability index came to 4.45. Still for that read-out and setting: the value for LPVETLGPASRMDPESERALQAWH [P23W] was 3.92; that for LPVETLGPASRMDPESERALQACH [P23C] was 4.19. With LPVETLGPASRMDPESERALQASH [P23S], the protein stability index was found to be 4.78.

On to LPVETLGPASRMDPESERALQAIH [P23I], for which the protein stability index came out at 4.28.

Consider LPVETLGPASRMDPESERALQALH [P23L], for which the protein stability index stood at 4.49. Still for that read-out and setting: then LPVETLGPASRMDPESERALQAYH [P23Y], with 3.99; and LPVETLGPASRMDPESERALQAGH [P23G], with 5.01.

For the origin of these results see the supplement of paper PMC10567573.
